Tests used:
[1] = biological target: the molecule itself; assay: crystal structure; CRMP-4 (1-570) crystal form A, space group P21, twinned; 15%(w/v) PEG 6000, 100 mM Na HEPES pH 7.5, 100 mM KCl; protein 15 mg/ml; data at 100 K
[2] = biological target: the molecule itself; assay: crystal structure; CRMP-4 ΔC (13-490), space group P21; 30%(w/v) PEG 3350, 100 mM sodium tartrate, 100 mM bis-tris propane pH 6.5; protein 18 mg/ml; data at 100 K

| Protein | stoichiometry N [1] | stoichiometry N [2] |
| --- | --- | --- |
| human CRMP-4 (collapsin response mediator protein 4), full-length, residues 1-570 (natural protein, CRMP-4 (DPYSL3), human, residues 1-570 of NP_001378.1; only residues 12-496/497 (crystal form A) or 12-499 (form B) are resolved in the electron density; The vector pNIC28-Bsa4 extends the coding region by 23 N-terminal residues (hexahistidine tag and TEV site); The tag was deliberately not cleaved for the full-length protein; Homotetramer in both crystal forms and in solution; also called …) not shown | 4 |  |
| truncated human CRMP-4 (CRMP-4 ΔC), residues 13-490 (domain or fragment, CRMP-4 (DPYSL3), human, residues 13-490 of NP_001378.1; The His tag was removed with TEV protease; A serine from the TEV cleavage site is visible in chains C and D of the structure; Judging from the primer, Ser-Met probably remains before residue 13; Tetramer in the crystal, lower oligomers in solution; also called CRMP-4 ΔC (13-490); source: E. coli BL21(DE3)pLysS, purified (Ni-NTA, TEV …)) not shown |  | 4 |

Reference: PMC4051505, “Crystal structure of human CRMP-4: correction of intensities for lattice-translocation disorder” (Acta Crystallographica Section D: Biological Crystallography, 2014)
